In publication PMC7026339, “Human bone morphogenetic protein-2 (hBMP-2) characterization by physical–chemical, immunological and biological assays” (AMB Express, 2020):

B1: E. coli-derived methionyl-human bone morphogenetic protein-2 (met-hBMP-2, GenScript) (natural protein)
chain: MQAKHKQRKRLKSSCKRHPLYVDFSDVGWNDWIVAPPGYHAFYCHGECPFPLADHLNSTNHAIVQTLVNSVNSKIPKACCVPTELSAISMLYLDENEKVVLKNYQDMVVEGCGCR
notes: initial methionine of methionyl-hBMP-2 (printed as 'initial Met'); human bone morphogenetic protein-2, mature protein of 114 AA (theoretical backbone 12,905 Da without the initial Met; 13,036 Da with it); theoretical mass of the dimer 26,072 Da; also called E. coli-derived hBMP-2; GenScript preparation; source: bought: GenScript (from E. coli), lyophilized, reconstituted in 20 mM acetic acid
B2: CHO-derived hBMP-2 (Infuse, Medtronic), 114 amino acid glycosylated subunit (form A) (natural protein, human, UniProt P12643 283-396, looked up)
chain: QAKHKQRKRLKSSCKRHPLYVDFSDVGWNDWIVAPPGYHAFYCHGECPFPLADHLNSTNHAIVQTLVNSVNSKIPKACCVPTELSAISMLYLDENEKVVLKNYQDMVVEGCGCR
modifications: glycosylated at one site with high-mannose-type glycans
notes: human bone morphogenetic protein-2, authentic mature protein of 114 AA without initial Met (backbone 12,905 Da); Infuse is a disulfide-linked dimeric protein with two major subunit species of 114 and 131 amino acids; this molecule is the 114 AA subunit; also called 14,377 Da form; 114 AA monomer

Target: the molecule itself
Experiment: SDS-PAGE and Western blotting under non-reducing conditions; 15% acrylamide gel, Coomassie Blue G stain; Western blot with anti-hBMP-2 rabbit IgG; non-reducing conditions; shows the disulfide-linked dimer

| Protein | stoichiometry N |
| --- | --- |
| B1 | 2 |
| B2 | 2 |
